According to article PMC5342195, “Structure-based mutational analysis of ICAT residues mediating negative regulation of β-catenin co-transcriptional activity” (PLoS ONE, 2017):

T1: ICAT D66G + F71A + E75V (GAV), Flag-tagged (human, UniProt Q9NSA3 1-81, D66G | F71A | E75V)
T1 construct: ICAT, human cDNA of 243 bp in pFLAG-CMV2, triple mutant of the C-terminal domain; also called ICAT-GAV; source: Mel501 cells, transiently transfected, in total cell lysate
T1 sequence (looked up): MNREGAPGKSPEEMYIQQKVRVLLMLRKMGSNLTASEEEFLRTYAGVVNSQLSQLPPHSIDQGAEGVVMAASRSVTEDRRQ


Key:
[1] = target: T2, WT ICAT-GST recombinant protein (human, UniProt Q9NSA3 1-81); test: pull-down; WT ICAT-GST on glutathione-Sepharose 4B beads incubated 3 h at 4°C with total cell lysate in RIPA (500 μg of total proteins) of Lu1205 cells transfected with HA-tagged β-catenin-NLS WT or mutants; washed five times; anti-HA blot; densitometry with ImageJ; conditions: one partner purified
T2 construct: ICAT, WT human cDNA cloned in the bacterial expression vector pGEX-4T3; also called recombinant WT ICAT-GST protein

[2] = target: T1, ICAT D66G + F71A + E75V (GAV), …; test: co-IP; total cell lysates of Mel501 cells transfected with ICAT-Flag WT or mutants, anti-Flag monoclonal antibody 2 h at 4°C, Protein G agarose, washed with RIPA; blot for endogenous β-catenin; densitometry with ImageJ, control fixed to 1.0; conditions: partners not purified
[3] = target: T3, ICAT F71A + E75V (AV), Flag-tagged (human, UniProt Q9NSA3 1-81, F71A | E75V); test: as above; conditions: partners not purified
T3 construct: ICAT, human cDNA of 243 bp in pFLAG-CMV2, double mutant of the C-terminal domain; also called ICAT-AV; source: Mel501 cells, transiently transfected, in total cell lysate

[4] = target: T4, ICAT D66G + F71A (GA), Flag-tagged (human, UniProt Q9NSA3 1-81, D66G | F71A); test: as above; conditions: partners not purified
T4 construct: ICAT, human cDNA of 243 bp in pFLAG-CMV2, double mutant of the C-terminal domain; also called ICAT-GA; source: Mel501 cells, transiently transfected, in total cell lysate

fold of pulled-down protein against full-length WT β-catenin [1] [fold] | reduction of co-precipitated β-catenin against ICAT WT [2] [%] | reduction of co-precipitated β-catenin against ICAT WT [3] [%] | reduction of co-precipitated β-catenin against ICAT WT [4] [%] | Binder
1.5 | – | – | – | HA-tagged β-catenin-NLS Δ665 (D665X) (domain or fragment, UniProt P35222 1-664, looked up, β-catenin of the HA-tagged CMV::β-catenin-NLS expression vector, truncated by a premature stop codon at residue 665 (D665X); lacks helix C (residues 667-683) and the C-terminal domain; If the NLS stood at the C-terminus of the parent construct, the stop codon would remove it; also called β-catenin Δ665; source: Lu1205 cells, transfected, in total cell lysate) MATQADLMELDMAMEPDRKAAVSHWQQQSYLDSGIHSGATTTAPSLSGKGNPEEEDVDTSQVLYEWEQGFSQSFTQEQVADIDGQYAMTRAQRVRAAMFPETLDEGMQIPSTQFDAAHPTNVQRLAEPSQMLKHAVVNLINYQDDAELATRAIPELTKLLNDEDQVVVNKAAVMVHQLSKKEASRHAIMRSPQMVSAIVRTMQNTNDVETARCTAGTLHNLSHHREGLLAIFKSGGIPALVKMLGSPVDSVLFYAITTLHNLLLHQEGAKMAVRLAGGLQKMVALLNKTNVKFLAITTDCLQILAYGNQESKLIILASGGPQALVNIMRTYTYEKLLWTTSRVLKVLSVCSSNKPAIVEAGGMQALGLHLTDPSQRLVQNCLWTLRNLSDAATKQEGMEGLLGTLVQLLGSDDINVVTCAAGILSNLTCNNYKNKMMVCQVGGIEALVRTVLRAGDREDITEPAICALRHLTSRHQEAEMAQNAVRLHYGLPVVVKLLHPPSHWPLIKATVGLIRNLALCPANHAPLREQGAIPRLVQLLVRAHQDTQRRTSMGGTQQQFVEGVRMEEIVEGCTGALHILARDVHNRIVIRGLNTIPLFVQLLYSPIENIQRVAAGVLCELAQDKEAAEAIEAEGATAPLTELLHSRNEGVATYAAAVLFRMSE
– | > 70 | > 70 | > 70 | endogenous β-catenin of Mel501 cells (natural protein, human (endogenous in Mel501), UniProt P35222 1-781, looked up, β-catenin, endogenous in the human melanoma cell line Mel501; also called CTNNB1; source: endogenous, Mel501 total cell lysate) MATQADLMELDMAMEPDRKAAVSHWQQQSYLDSGIHSGATTTAPSLSGKGNPEEEDVDTSQVLYEWEQGFSQSFTQEQVADIDGQYAMTRAQRVRAAMFPETLDEGMQIPSTQFDAAHPTNVQRLAEPSQMLKHAVVNLINYQDDAELATRAIPELTKLLNDEDQVVVNKAAVMVHQLSKKEASRHAIMRSPQMVSAIVRTMQNTNDVETARCTAGTLHNLSHHREGLLAIFKSGGIPALVKMLGSPVDSVLFYAITTLHNLLLHQEGAKMAVRLAGGLQKMVALLNKTNVKFLAITTDCLQILAYGNQESKLIILASGGPQALVNIMRTYTYEKLLWTTSRVLKVLSVCSSNKPAIVEAGGMQALGLHLTDPSQRLVQNCLWTLRNLSDAATKQEGMEGLLGTLVQLLGSDDINVVTCAAGILSNLTCNNYKNKMMVCQVGGIEALVRTVLRAGDREDITEPAICALRHLTSRHQEAEMAQNAVRLHYGLPVVVKLLHPPSHWPLIKATVGLIRNLALCPANHAPLREQGAIPRLVQLLVRAHQDTQRRTSMGGTQQQFVEGVRMEEIVEGCTGALHILARDVHNRIVIRGLNTIPLFVQLLYSPIENIQRVAAGVLCELAQDKEAAEAIEAEGATAPLTELLHSRNEGVATYAAAVLFRMSEDKPQDYKKRLSVELTSSLFRTEPMAWNETADLGLDIGAQGEPLGYRQDDPSYRSFHSGGYGQDALGMDPMMEHEMGGHHPGADYPVDGLPDLGHAQDLMDGLPPGDSNQLAWFDTDL
